The text below walks through data of patent US20210107981A1 (SUTRO BIOPHARMA, published 2021).

What is called Kd is the concentration at which binding is half-saturated. One may read the koff as the rate constant with which the complex falls apart. As usually defined, the kon is the rate constant with which the complex forms. The low end stands for slow association, the high end for fast association.

The labels stand for the following.
B1: h1E9-HC3 × h1E9-LC3 IgG (antibody)
heavy: not shown
light: MEIVLTQSPGTLSLSPGERATLSCRASESVDNSGISFMSWYQQKPGQAPRLLIYTASNQGSGIPDRFSGSGSGTDFTLTISRLEPEDFAVYYCQQSKEVPWTFGQGTKVEIKRTVAAPSVFIFPPSDEQLKSGTASVVCLLNNFYPREAKVQWKVDNALQSGNSQESVTEQDSKDSTYSLSSTLTLSKADYEKHKVYACEVTHQGLSSPVTKSFNRGEC
notes: Humanized IgG; heavy chain with C-terminal FlagHis tag
B2: h1E9-HC1 × h1E9-LC3 IgG (antibody)
heavy: not shown
light: B1 light
notes: as for B1
B3: h1E9-HC2 × h1E9-LC3 IgG (antibody)
heavy: not shown
light: B1 light
notes: as for B1
B4: h1E9-5-IgG-HC-FLAG-HIS × h1E9-LC3 IgG (antibody)
heavy: not shown
light: B1 light
notes: also called h1E9-5 HC × h1E9-LC3
B5: h1E9-HC3 × h1E9-LC1 IgG (antibody)
heavy: not shown
light: MDIQLTQSPSSLSASVGDRVTITCRASESVDNSGISFMSWYQQKPGKAPKLLIYTASNQGSGVPSRFSGSGSGTDFTFTISSLQPEDIATYYCQQSKEVPWTFGQGTKVEIKRTVAAPSVFIFPPSDEQLKSGTASVVCLLNNFYPREAKVQWKVDNALQSGNSQESVTEQDSKDSTYSLSSTLTLSKADYEKHKVYACEVTHQGLSSPVTKSFNRGEC
notes: as for B1
B6: h1E9-5-IgG-HC-FLAG-HIS × h1E9-LC1 IgG (antibody)
heavy: not shown
light: B5 light
notes: also called h1E9-5 HC × h1E9-LC1
B7: h1E9-HC2 × h1E9-LC1 IgG (antibody)
heavy: not shown
light: B5 light
notes: as for B1
B8: h1E9-HC1 × h1E9-LC1 IgG (antibody)
heavy: not shown
light: B5 light
notes: as for B1
B9: h1E9-2 (VH3-21-Vκ3-11) scFv (scFv)
scFv: MEVQLVESGGGLVKPGGSLRLSCAASGFTFSTFGMSWVRQAPGKGLEWVSTISGGGSDTYYPDSVQGRFTISRDNAKNSLYLQMNSLRAEDTAVYYCARQGYDVYSWFAYWGQGTLVTVSSGGGGSGGGGSGGGGSEIVLTQSPATLSLSPGERATLSCRASESVDNSGISFMSWYQQKPGQAPRLLIYTASNQGSGIPARFSGSGSGTDFTLTISSLEPEDFAVYYCQQSKEVPWTFGQGTKVEIKGSGDYKDDDDKGSGHHHHHH
notes: Whole scFv chain with FlagHis tag
B10: h1E9-5 (VH3-7-Vκ3-11) scFv (scFv)
scFv: B9 scFv with K14Q, S50A
notes: as for B9
B11: m4B10 scFv (scFv)
scFv: MEVKLVESGGGLVKPGGSLKLSCAASGFTFSTYGMSWVRQTPEKRLQWVATISGGGSNTYYSDSVKGRFTISRDNAKNNLYLQMSSLRSEDTALYYCARQRDSAWFASWGQGTLVTVSAGGGGSGGGGSGGGGSDIVLTQSPASLAVSLGQRATISCRASENVDDYGVSFMNWFQQKPGQPPKLLIYPASNQGSGVPARFSGSGSGTDFSLNIHPMEEDDTAMYFCQQSKEVPWTFGGGTKLEIKGSGDYKDDDDKGSGHHHHHH
notes: Mouse single-chain antibody, whole chain with FlagHis tag
B12: h4B10-3 (VH3-15-Vκ4-1) scFv (scFv)
scFv: MEVQLVESGGGLVKPGGSLRLSCAASGFTFSTYGMSWVRQAPGKGLEWVATISGGGSNTYYSDSVKGRFTISRDDSKNTLYLQMNSLKTEDTAVYYCARQRDSAWFASWGQGTLVTVSSGGGGSGGGGSGGGGSDIVMTQSPDSLAVSLGERATINCRASENVDDYGVSFMNWYQQKPGQPPKLLIYPASNQGSGVPDRFSGSGSGTDFTLTISSLQAEDVAVYYCQQSKEVPWTFGGGTKLEIKGSGDYKDDDDKGSGHHHHHH
notes: as for B9
B13: m1B10 scFv (scFv)
scFv: MSDVQLQESGPGLVKPSQSLSLTCTVTGHSITSDYAWNWIRQFPGNKLEWMGYISYSGRTSYNPSLTSRISITRDTSKNQFFLQLNSVTTEDTATYYCARGYALDYWGQGTSVTVSSGGGGSGGGGSGGGGSQIVLSQSPAILSASPGEKVTMTCRTSSSVNYMHWFQQKPGSSPKPWIYATSKLASGVPARFSGSGSGTSYSLTISRVEAEDAATYFCQQWISDPWTFGGGTKLEIKGSGDYKDDDDKGSGHHHHHH
notes: as for B11
B14: h4B10-1 (VH3-15-Vκ3-11) scFv (scFv)
scFv: MEVQLVESGGGLVKPGGSLRLSCAASGFTFSTYGMSWVRQAPGKGLEWVATISGGGSNTYYSDSVKGRFTISRDDSKNTLYLQMNSLKTEDTAVYYCARQRDSAWFASWGQGTLVTVSSGGGGSGGGGSGGGGSEIVLTQSPATLSLSPGERATLSCRASENVDDYGVSFMNWYQQKPGQAPRLLIYPASNQGSGIPARFSGSGSGTDFTLTISSLEPEDFAVYYCQQSKEVPWTFGQGTKVEIKGSGDYKDDDDKGSGHHHHHH
notes: as for B9
B15: h4B10-2 (VH3-15-Vκ3-20) scFv (scFv)
scFv: B14 scFv with A143G, A198D, S215R
notes: as for B9
B16: h1E9-1 (VH3-21-Vκ1-9) scFv (scFv)
scFv: MEVQLVESGGGLVKPGGSLRLSCAASGFTFSTFGMSWVRQAPGKGLEWVSTISGGGSDTYYPDSVQGRFTISRDNAKNSLYLQMNSLRAEDTAVYYCARQGYDVYSWFAYWGQGTLVTVSSGGGGSGGGGSGGGGSDIQLTQSPSFLSASVGDRVTITCRASESVDNSGISFMSWYQQKPGKAPKLLIYTASNQGSGVPSRFSGSGSGTEFTLTISSLQPEDFATYYCQQSKEVPWTFGQGTKVEIKGSGDYKDDDDKGSGHHHHHH
notes: as for B9
B17: h1E9-4 (VH3-7-Vκ1-9) scFv (scFv)
scFv: B16 scFv with K14Q, S50A
notes: as for B9

Positions count from the first letter of the chain named.

T2 sequence (Q15116 25-288 limits assumed): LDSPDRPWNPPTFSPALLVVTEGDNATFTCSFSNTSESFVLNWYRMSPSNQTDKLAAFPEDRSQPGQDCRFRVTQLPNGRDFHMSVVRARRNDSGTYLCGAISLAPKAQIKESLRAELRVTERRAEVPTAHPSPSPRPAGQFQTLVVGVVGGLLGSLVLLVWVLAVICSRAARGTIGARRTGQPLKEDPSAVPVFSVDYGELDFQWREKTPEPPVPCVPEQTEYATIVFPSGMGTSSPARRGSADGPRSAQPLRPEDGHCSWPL

In one test the target is T1, cynomolgus PD-1 expressed on CHO cells (cynomolgus, UniProt B0LAJ3 25-288).
T1 construct: also called Cell-Surface Cynomolgus PD-1 antigen
T1 sequence (B0LAJ3 entry or part of it limits assumed, form in doubt): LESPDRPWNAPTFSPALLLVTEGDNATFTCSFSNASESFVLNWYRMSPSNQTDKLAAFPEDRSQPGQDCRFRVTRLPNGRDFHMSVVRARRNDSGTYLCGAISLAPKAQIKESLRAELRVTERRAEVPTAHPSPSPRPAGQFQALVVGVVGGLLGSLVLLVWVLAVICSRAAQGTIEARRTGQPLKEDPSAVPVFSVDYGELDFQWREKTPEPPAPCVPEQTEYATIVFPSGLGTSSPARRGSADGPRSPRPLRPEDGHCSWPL
The experiment in a line: FACS cell binding on CHO cells expressing cynomolgus PD-1. On the procedure: (§1) A mix of parental CHO cells and CHO-PD1 cells was prepared as follows: Parental CHO cells were washed 2× in PBS then incubated in PBS containing 1 μM CellTrace™ Oregon Green488® (Life Technologies) at 37° C. for 30 minutes. Cells were then washed 2× with RPMI w/10% fetal calf serum (FCS), washed 2× with FACS buffer (PBS w/2% FCS), suspended thoroughly in ice-cold FACS buffer at a final concentration of 2×10⁶ cells/mL and kept on ice. CHO-PD1 cells were similarly washed with FACS buffer and kept on ice at 2×10⁶ cells/mL. Parental CHO cells and CHO-PD1 cells were then mixed to obtain a 1:1 cell suspension and seeded at 100 μL per well on 96 well polypropylene plates. Plates were spun at 1500 rpm for 5 minutes and cell pellets were suspended in 50 μL FACS buffer containing 6-12 point dilutions of anti-PD-1 variants starting from concentrations of −100-200 nM antibody, dispensed using BioMek FX (Beckman Coulter). Cells were then incubated on ice for 1 hr, washed with FACS buffer and incubated for 1 hr on ice with 50 μL FACS buffer containing 2.5 μg/ml R-phycoerythrin-conjugated goat anti-Human IgG (Jackson ImmunoResearch) or AF647-conjugated goat anti-mouse IgG (Life Technologies) dispensed using BioMek FX (Beckman Coulter). Cells were then washed 2× with FACS buffer and fixed for 10 minutes in 200 μL PBS with 2% paraformaldehyde (PFA) prior to fluorescence detection. Samples were acquired using a Becton Dickinson LSRII FACS. Mean Fluorescence Intensity of PD-1 antibody binding was analyzed using FlowJo® software (Tree Star, Inc.).
The affinity of the IgGs for cell-surface expressed cynomolgus PD-1 were measured according to Example 6, above.
As to B1, the Kd stood at 8 nM.

B2 came in with a Kd of 15 nM.

B3: the affinity, expressed as Kd, was 9 nM.

B4 had a dissociation constant Kd of 9 nM.

In turn, B5 gave a Kd of 4 nM.

Take B6: the Kd is 4 nM.

For the molecule B7, the equilibrium dissociation constant (Kd) came out at 6 nM.

Molecule B8 gave a Kd of 7 nM.

Another test concerns the target T2, human PD-1 expressed on the cell surface (CHO-PD1 cells) (human, UniProt Q15116 25-288).
T2 construct: Also used here as the target for native PD-1 on human PBMC / T cells in the functional (IFN-g) assays; also called CHO cell line overexpressing human PD-1; Cell-Surface Human PD-1 antigen
The experiment in a line: FACS cell binding on CHO cells expressing human PD-1. On the procedure: as §1
The affinity of the IgGs for cell-surface expressed human PD-1 were measured according to Example 6, above.
As to B1, the Kd was 12 nM.

Consider B2, for which the Kd was 12 nM.

For B3, the affinity, expressed as Kd, was 9 nM.

As for B4, the Kd was found to be 11 nM.

Molecule B5 registered a Kd of 8 nM.

B6 showed a Kd of 9 nM.

The molecule B7 displayed a dissociation constant Kd of 7 nM.

The molecule B8 came in with a Kd of 6 nM.

The target of another test is T3, Human PD-1 (ACROBiosystems, Inc., Catalog No. PD1-H5221) (human, UniProt Q15116 25-167).
T3 construct: Bought recombinant protein; also called huPD1-His; PD-1-his; not shown: His tag of the bought protein (huPD1-His)
T3 sequence (Q15116 25-167 limits assumed): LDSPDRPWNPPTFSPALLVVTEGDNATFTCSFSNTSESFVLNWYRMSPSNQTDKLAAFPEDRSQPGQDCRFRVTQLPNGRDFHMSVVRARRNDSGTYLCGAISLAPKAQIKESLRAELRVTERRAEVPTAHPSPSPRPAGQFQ
As to the kind of experiment: SPR (Biacore), IgG as ligand, PD-1-his as sample. In general terms: In SPR one partner is held on a chip, and binding of the other changes the refractive index at the surface.
In turn, B1 returned a Kd of 16.9 nM.

Molecule B2 registered a Kd of 6.38 nM.

Molecule B3 displayed a Kd of 10.9 nM.

B4 registered a dissociation constant (Kd) of 16.3 nM.

B5 came in with a dissociation constant Kd of 3.6 nM.

B6: binding was characterised by a dissociation constant (Kd) of 3.7 nM.

In the case of B7, the Kd came out at 3.11 nM.

With B8, the dissociation constant Kd turned out to be 5.08 nM.

The target of another test is T3, Human PD-1 (ACROBiosystems, Inc., …). As to the kind of experiment: SPR (Biacore), scFv captured on anti-FLAG, PD-1 as analyte. On the procedure: Monoclonal anti-FLAG M2 IgG (Sigma-Aldrich #F9291) was immobilized onto a CMS chip (GE Life Sciences) using amine coupling chemistry (from Amine Coupling Kit, GE Life Sciences). The immobilization steps were carried out at a flow rate of 25 μl/min in 1×HBS-EP+ buffer (GE Life Sciences; 10× Stock diluted before use). The sensor surfaces were activated for 7 min with a mixture of NHS (0.05 M) and EDC (0.2 M). The Anti-FLAG M2 IgG was injected over all 4 flow cells at a concentration of 25 μg/ml in 10 mM sodium acetate, pH 4.5, for 7 min. Ethanolamine (1 M, pH 8.5) was injected for 7 min to block any remaining activated groups.
Off-rate and kinetic binding experiments were performed at 25° C. using 1×HBS-EP+ buffer. Test and control antibodies were injected over the Anti-FLAG surface at concentrations of 5-10 μg/mL for 12 seconds at a flow rate of 10 μl/min on flow cells 2, 3 and 4, followed by a buffer wash for 30 seconds at the same flow rate. Kinetic characterization of antibody samples was carried out with a single concentration of antigen (for off-rate ranking) or a 1:2 dilution series of antigen (for kinetic characterization) and 1 injection of 0 nM antigen (i.e., buffer alone). After capturing ligand (anti-PD-1 antibody) on the anti-FLAG surface, the analyte (huPD1-His) was bound at 50, 25, 12.5, 6.25 and 0 nM for 180 seconds, followed by a 600 second dissociation phase at a flow rate of 50 μl/min. Between each ligand capture and analyte binding cycle, regeneration was carried out using 2 injections of 10 mM glycine pH 2.0 for 30 seconds at 30 μL/min, followed by a 30 second buffer wash step.
The data was fit with the Biacore T200 Evaluation software, using a 1:1 Langmuir binding model. KD (affinity, nM) was determined as a ratio of the kinetic rate constants calculated from the fits of the association and dissociation phases.
As to B9, the dissociation constant (Kd) came out at 38.5 nM, the koff is 0.00182 s⁻¹ and the kon came to 47400 M⁻¹ s⁻¹.

In turn, B10 displayed a Kd of 3.15 nM, a koff of 0.000628 s⁻¹ and an on-rate constant (kon) of 200000 M⁻¹ s⁻¹.

In the case of B11, binding was characterised by a dissociation constant (Kd) of 5.14 nM, the dissociation rate constant (koff) was 0.000417 s⁻¹ and the on-rate (kon) was 81200 M⁻¹ s⁻¹.

Turning to B12, the affinity, expressed as Kd, was 1.2 nM; the off-rate constant (koff) is 0.000617 s⁻¹; the kon was found to be 513000 M⁻¹ s⁻¹.

Take B13: the Kd turned out to be 12.8 nM, the koff was 0.00239 s⁻¹ and the kon turned out to be 186000 M⁻¹ s⁻¹.

B14 returned a Kd of 2.47 nM, a koff of 0.00299 s⁻¹ and a kon of 1.21e+06 M⁻¹ s⁻¹.

Molecule B15 yielded an equilibrium dissociation constant (Kd) of 2.79 nM, a koff of 0.00324 s⁻¹ and an on-rate constant (kon) of 1.16e+06 M⁻¹ s⁻¹.

In the case of B16, the Kd was determined as 2.58 nM, the dissociation rate constant (koff) came out at 0.000468 s⁻¹ and the kon came out at 182000 M⁻¹ s⁻¹.

Molecule B17 gave a Kd of 3.66 nM, an off-rate constant (koff) of 0.000679 s⁻¹ and a kon of 185000 M⁻¹ s⁻¹.
